Assay results from publication PMC2887978.

Molecular target: MBD2b (UniProt Q9UBB5 150-411)
Experiment: EMSA

Sequence of MBD2b (Q9UBB5 150-411): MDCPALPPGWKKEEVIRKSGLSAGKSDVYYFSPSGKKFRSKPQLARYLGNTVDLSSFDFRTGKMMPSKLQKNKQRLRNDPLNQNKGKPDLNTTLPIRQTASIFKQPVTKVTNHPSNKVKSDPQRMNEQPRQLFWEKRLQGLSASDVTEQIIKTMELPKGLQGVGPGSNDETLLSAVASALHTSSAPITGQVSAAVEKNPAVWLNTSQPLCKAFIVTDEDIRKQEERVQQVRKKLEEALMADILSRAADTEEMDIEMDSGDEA

B1: C76 (dsDNA)
DNA 1: CCTCACCATCTCAACCAATATTATATTACGCGTATATCGCGTATTTCGCGTTATAATATTGAGGGAGAAGTGGTGA
DNA 2: TCACCACTTCTCCCTCAATATTATAACGCGAAATACGCGATATACGCGTAATATAATATTGGTTGAGATGGTGAGG
B1: no binding.
